From US20050226876A1 (Hoffmann-La Roche, published 2005)

Tests used:
[1] = target: T1, human complement factor C3 (from human pooled serum) (human, UniProt P01024 23-1663, limits assumed); test: C3 ELISA, antibody coated, human pooled serum; background OD405 0.098
T1 construct: The ELISA detects C3 (C3c) deposited on the coated antibody out of serum; also called C3c
Method: (§1) In principle, the ELISA plate is coated with concentration ranges of the antibody, to which human C1q or human pooled serum, as a source of C3, is added. C1q or […] binding is detected by an antibody directed against human C1q or […] followed by a peroxidase-labeled conjugate.

[2] = target: T1, human complement factor C3 (from human …); test: C3 ELISA, antibody coated, human pooled serum
Method: as §1

[3] = target: T2, cynomologus P-selectin (on thrombin-activated cynomologus platelets) (cynomologus monkey); test: cell-based or functional assay
T2 chain: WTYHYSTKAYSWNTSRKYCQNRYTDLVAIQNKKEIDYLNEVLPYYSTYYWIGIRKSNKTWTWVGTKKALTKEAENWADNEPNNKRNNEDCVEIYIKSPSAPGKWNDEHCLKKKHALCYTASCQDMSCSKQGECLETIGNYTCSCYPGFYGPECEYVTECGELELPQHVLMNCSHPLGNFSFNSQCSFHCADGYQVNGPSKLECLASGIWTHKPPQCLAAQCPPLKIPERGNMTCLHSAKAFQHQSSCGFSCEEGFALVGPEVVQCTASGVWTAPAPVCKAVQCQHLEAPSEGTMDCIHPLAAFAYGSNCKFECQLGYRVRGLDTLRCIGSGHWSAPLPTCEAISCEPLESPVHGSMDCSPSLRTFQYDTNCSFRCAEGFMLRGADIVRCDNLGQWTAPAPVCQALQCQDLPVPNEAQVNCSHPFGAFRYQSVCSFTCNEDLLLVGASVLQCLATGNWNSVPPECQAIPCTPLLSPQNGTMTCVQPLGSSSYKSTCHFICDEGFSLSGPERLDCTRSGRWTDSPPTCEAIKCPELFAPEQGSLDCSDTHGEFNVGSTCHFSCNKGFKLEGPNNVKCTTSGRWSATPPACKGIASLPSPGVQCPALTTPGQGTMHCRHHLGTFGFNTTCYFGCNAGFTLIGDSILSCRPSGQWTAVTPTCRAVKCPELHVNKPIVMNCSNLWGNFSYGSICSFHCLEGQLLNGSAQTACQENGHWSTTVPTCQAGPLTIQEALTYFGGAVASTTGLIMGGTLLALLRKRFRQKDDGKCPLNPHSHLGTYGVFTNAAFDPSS

[4] = target: T3, E-selectin on E-selectin-CHO transfectants (UniProt P16581 22-610, limits assumed); test: cell-based ELISA on E-selectin-CHO transfectants, OD405
T3 construct: whole, on cells; also called E-selectin-CHO cells; E-selectin transfectants
T3 sequence (looked up): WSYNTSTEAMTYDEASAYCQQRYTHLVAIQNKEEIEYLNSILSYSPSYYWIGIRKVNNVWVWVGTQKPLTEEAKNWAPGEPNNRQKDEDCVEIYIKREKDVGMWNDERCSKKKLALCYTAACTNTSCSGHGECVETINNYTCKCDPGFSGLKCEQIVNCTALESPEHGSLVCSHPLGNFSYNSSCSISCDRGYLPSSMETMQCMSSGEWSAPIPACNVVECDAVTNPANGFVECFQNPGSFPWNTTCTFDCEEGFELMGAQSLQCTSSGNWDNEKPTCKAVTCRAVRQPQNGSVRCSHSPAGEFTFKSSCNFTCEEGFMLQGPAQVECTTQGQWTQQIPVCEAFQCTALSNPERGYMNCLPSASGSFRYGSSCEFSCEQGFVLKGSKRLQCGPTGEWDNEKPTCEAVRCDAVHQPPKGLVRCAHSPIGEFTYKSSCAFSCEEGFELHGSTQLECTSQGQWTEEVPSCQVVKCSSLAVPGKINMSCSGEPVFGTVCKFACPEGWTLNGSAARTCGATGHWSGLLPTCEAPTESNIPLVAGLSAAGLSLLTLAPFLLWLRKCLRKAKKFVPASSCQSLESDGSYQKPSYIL
Method: In the cell-based ELISA P— and E-selectin-CHO-transfectants, after detaching the cells with cell-dissociation solution (Sigma C5914), were seeded into each well of 96 well plates (TC Microwell F96 Nunc 167008) adjusted to 100,000 cells/well and cultivated in respective media overnight at 37° C. (medium for P— CHO-transfectants: DMEM+10% FCS+2 mM Glutamine+Penicillin 100 U/ml/Streptomycin 100 μg/ml; medium for E-selctin transfecttants: HAM F-12+10% FCS+2 mM Glutamine+Penicillin 100 U/ml/Streptomycin 100 μg/ml+0.1% Fungizone+100 μg/ml Neomycin). […] After washing the wells (4 times), the bound antibodies were detected using the same steps as mentioned above for the cell-free ELISA.

[5] = target: T4, P-selectin on thrombin-activated human platelets (human, UniProt P16109 42-830); test: cell-based or functional assay
T4 sequence (looked up): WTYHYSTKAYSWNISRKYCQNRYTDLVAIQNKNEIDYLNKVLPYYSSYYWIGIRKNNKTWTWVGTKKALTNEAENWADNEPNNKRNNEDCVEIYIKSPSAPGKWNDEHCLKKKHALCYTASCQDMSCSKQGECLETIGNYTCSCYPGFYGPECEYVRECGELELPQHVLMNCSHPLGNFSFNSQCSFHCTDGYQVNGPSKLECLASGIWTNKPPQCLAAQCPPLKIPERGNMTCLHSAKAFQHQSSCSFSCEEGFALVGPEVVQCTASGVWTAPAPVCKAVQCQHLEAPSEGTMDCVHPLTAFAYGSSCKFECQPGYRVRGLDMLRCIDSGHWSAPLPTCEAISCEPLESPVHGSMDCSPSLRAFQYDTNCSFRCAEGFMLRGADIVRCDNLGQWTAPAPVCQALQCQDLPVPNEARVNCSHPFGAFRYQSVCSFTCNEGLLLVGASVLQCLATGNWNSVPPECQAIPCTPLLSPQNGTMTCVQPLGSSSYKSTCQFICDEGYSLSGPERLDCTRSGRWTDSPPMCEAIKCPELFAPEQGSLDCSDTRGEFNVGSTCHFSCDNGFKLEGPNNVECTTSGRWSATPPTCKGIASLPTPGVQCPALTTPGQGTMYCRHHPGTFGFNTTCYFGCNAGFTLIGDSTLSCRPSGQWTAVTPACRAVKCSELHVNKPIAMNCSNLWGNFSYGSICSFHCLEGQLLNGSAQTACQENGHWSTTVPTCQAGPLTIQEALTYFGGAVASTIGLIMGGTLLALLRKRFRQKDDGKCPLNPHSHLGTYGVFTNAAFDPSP

T1 sequence (P01024 23-1663 limits assumed): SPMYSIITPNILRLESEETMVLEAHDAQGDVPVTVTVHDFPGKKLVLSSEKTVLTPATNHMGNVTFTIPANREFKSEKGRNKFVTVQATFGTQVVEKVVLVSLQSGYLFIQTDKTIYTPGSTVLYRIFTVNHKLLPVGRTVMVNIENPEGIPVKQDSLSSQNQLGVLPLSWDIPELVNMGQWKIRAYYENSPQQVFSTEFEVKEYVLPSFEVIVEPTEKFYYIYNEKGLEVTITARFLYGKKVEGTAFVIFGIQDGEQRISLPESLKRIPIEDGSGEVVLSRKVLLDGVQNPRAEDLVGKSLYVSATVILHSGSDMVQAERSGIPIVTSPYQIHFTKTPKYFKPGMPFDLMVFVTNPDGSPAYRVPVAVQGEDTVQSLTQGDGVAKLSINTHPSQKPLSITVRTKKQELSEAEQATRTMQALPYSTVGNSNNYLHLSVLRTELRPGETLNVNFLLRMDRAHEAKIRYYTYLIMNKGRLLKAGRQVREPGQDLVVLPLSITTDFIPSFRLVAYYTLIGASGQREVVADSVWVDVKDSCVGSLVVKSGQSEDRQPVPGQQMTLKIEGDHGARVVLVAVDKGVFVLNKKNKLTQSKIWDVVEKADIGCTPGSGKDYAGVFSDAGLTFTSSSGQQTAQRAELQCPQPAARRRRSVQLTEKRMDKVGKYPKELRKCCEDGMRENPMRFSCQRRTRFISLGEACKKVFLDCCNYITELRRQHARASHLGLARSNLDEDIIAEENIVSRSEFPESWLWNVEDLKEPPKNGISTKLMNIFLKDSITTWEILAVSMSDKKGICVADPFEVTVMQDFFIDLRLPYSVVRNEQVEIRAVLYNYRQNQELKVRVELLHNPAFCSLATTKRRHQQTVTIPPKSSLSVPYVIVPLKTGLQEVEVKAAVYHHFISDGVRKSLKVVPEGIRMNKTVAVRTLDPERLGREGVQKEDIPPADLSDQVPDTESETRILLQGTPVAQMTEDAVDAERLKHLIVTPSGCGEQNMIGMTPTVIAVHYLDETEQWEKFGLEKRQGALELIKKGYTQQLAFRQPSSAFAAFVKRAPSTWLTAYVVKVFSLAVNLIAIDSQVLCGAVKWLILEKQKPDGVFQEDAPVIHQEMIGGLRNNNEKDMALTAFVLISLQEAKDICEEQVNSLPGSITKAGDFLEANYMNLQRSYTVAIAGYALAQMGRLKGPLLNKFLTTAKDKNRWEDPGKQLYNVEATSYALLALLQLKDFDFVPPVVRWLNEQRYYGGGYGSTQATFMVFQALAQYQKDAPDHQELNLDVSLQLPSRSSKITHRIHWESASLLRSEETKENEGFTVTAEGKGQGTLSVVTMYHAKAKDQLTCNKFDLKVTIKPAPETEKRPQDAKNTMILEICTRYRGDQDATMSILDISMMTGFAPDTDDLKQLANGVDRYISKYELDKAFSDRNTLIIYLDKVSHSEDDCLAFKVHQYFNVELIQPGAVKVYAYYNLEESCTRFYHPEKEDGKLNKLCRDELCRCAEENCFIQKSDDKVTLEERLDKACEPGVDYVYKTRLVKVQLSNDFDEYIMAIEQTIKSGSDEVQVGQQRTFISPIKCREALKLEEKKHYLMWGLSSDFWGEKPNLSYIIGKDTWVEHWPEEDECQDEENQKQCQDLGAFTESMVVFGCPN

B1: HuMab 002 Fc variant IgG1v1 (PVA-236; GLPSS331: E233P; L234V; L235A; delta G236; A327G; A330S; P331S) (antibody)
heavy: EVQLVESGGGLVRPGGSLRLSCAASGFTFSNYDMHWVRQATGKGLEWVSAITAAGDIYYPGSVKGRFTISRENAKNSLYLQMNSLRAGDTAVYYCARGRYSGSGSYYNDWFDPWGQGTLVTVSSASTKGPSVFPLAPSSKSTSGGTAALGCLVKDYFPEPVTVSWNSGALTSGVHTFPAVLQSSGLYSLSSVVTVPSSSLGTQTYICNVNHKPSNTKVDKKVEPKSCDKTHTCPPCPAPPVAGPSVFLFPPKPKDTLMISRTPEVTCVVVDVSHEDPEVKFNWYVDGVEVHNAKTKPREEQYNSTYRVVSVLTVLHQDWLNGKEYKCKVSNKGLPSSIEKTISKAKGQPREPQVYTLPPSRDELTKNQVSLTCLVKGFYPSDIAVEWESNGQPENNYKTTPPVLDSDGSFFLYSKLTVDKSRWQQGNVFSCSVMHEALHNHYTQKSLSLSPGK
light: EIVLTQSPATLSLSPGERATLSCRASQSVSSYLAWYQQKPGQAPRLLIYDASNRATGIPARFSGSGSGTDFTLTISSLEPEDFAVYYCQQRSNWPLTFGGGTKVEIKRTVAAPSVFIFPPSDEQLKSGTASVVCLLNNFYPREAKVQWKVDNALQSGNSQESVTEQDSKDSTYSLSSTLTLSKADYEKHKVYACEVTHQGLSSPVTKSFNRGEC
notes: copies: 2 + 2
For B1, the “Bmax (OD405 at 10 µg/ml)” value [1] was 0.156 OD405, the binding result [2] was “no binding” and the “IC50 (read off the curve), rosetting assay with thrombin-activated cynomologus platelets and HL60 cells” value [3] was about 0.2 µg/ml. The binding result [4] was “no binding (tested: 100 µg/ml)” and the “IC50 (read off the curve), rosetting assay with thrombin-activated human platelets and HL60 cells” value [5] was about 0.08 µg/mL.
